{
  "source": "patent US20240166727A1",
  "about": "(CEINGE BIOTECNOLOGIE AVANZATE SCARL, published 2024)",
  "binders": {"B1": {"name": "D3 mAb (fully human IgG4 anti-Spike RBD antibody) (antibody, V domains shown)", "VH": "QVQLVQSGAEVKKPGATVKISCKVSGYTFTDYYMHWVQQAPGKGLEWMGLVDPEDGETIYAEKFQGRVTITADTSTDTAYMELSSLRSEDTAVYYCARGAKATLGLWGQGTLVTVSR", "VL": "ELTQDPAVSVALGQTVRITCQGDSLRSYYASWYQQKPGQAPVLVIYGKNNRPSGIPDRFSGSSSGNTASLTITGAQAEDEADYYCNSRDSSGNHVVFGGGTKLTVL"}},
  "biological_target": "Spike glycoprotein on SARS-COV-2 viral particles (Italian Variant, Genbank MT682732.1, GISAID EPI_ISL_477204) (SARS-COV-2, UniProt P0DTC2 14-1273)",
  "experiment": "cell-based or functional assay",
  "data": [
    {"binder": "B1", "values": [
      {"measurement": "IC50 of inhibition of viral infectivity (VERO E6 cells, 0.5 MOI)", "value": 15, "unit": "µg/mL"}
    ]}
  ]
}
